This data set deals with RPL26 (Homo sapiens, UniProt P61254 SEQ:1-145). Nature of the data set: EMSA; supershift with anti-penta His; 1.5 mM Mg acetate, 90 mM K acetate, 30 C. Background: A gel shift assay detects complexes by their altered migration in electrophoresis.

B1: p53 5'UTR (-191 to 2) (ssRNA)
RNA: GGUUUUCCCCUCCCAUGUGCUCAAGACUGGCGCUAAAAGUUUUGAGCUUCUCAAAAGUCUAGAGCCACCGUCCAGGGAGCAGGUAGCUGCUGGGCUCCGGGGACACUUUGCGUUCGGGCUGGGAGCGUGCUUUCCACGACGGUGACACGCUUCCCUGGAUUGGCAGCCAGACUGCCUUCCGGGUCACUGCCAU
In the case of B1, the binding result is recorded as “binds”.
